Among the data in patent US20120316071A1 are ECL signal and ELISA signal values, retold here.

In assay [1] the target is rHuman ErbB2/Fc Chimera (human) (UniProt P04626). Briefly: ECL (MSD) multispot assay, antigen spotted; blank spot of this row 236.
Assay [2] has the same target. Briefly: ECL (MSD) multispot assay, antigen spotted; blank spot of this row 223.
The target of assay [3] is rHuman EGF R/Fc Chimera, CF (R&D Systems Cat#344-ER) (human) (UniProt P00533). Briefly: ECL multispot (MSD) binding assay, antigen spotted on plate, Fab 0.04 uM.
The target of assay [4] is rHuman ErbB2/Fc Chimera, CF (R&D Systems Cat#1129-ER) (human) (UniProt P04626). The description is as above.
Assay [5] deals with Recombinant Human DLL4 (R&D Systems Cat#1506-D4/CF) (human) (UniProt Q9NR61). The experiment in a line: ELISA, DLL4 coated on plate, Fab at […] (cells of this row shifted one column left). On the technique in general: ELISA stands for enzyme-linked immunosorbent assay.
Assay [6] deals with rHuman EGF R/Fc Chimera, CF (R&D Systems Cat#344-ER) (human) (UniProt P00533). Briefly: MSD Multispot ECL, antigen spotted on plate, Fab at 15 nM; blank spot 261.
For assay [7], the target named is rHuman ErbB2/Fc Chimera, CF (R&D Systems Cat#1129-ER) (human) (UniProt P04626). The description is as above.
Assay [8] has as its target rHuman HGF R/c-MET/Fc Chimera, CF (R&D Systems Cat#358-MT/CF) (human) (UniProt P08581). The assay is described as above.
The target of assay [9] is rHuman IGF-1 sR, (IGF-1 sR), CF (R&D Systems Cat#391-GR) (human) (UniProt P08069). Described as above.
Assay [10] addresses rHuman EGF R/Fc Chimera, CF (R&D Systems Cat#344-ER) (human) (UniProt P00533). The experiment in a line: MSD Multispot ECL, antigen spotted on plate, Fab at 30 nM; blank spot 213.
Assay [11] concerns the target rHuman ErbB2/Fc Chimera, CF (R&D Systems Cat#1129-ER) (human) (UniProt P04626). The description is as above.
Assay [12] has as its target rHuman HGF R/c-MET/Fc Chimera, CF (R&D Systems Cat#358-MT/CF) (human) (UniProt P08581). The assay is described as above.
Assay [13] has as its target rHuman IGF-1 sR, (IGF-1 sR), CF (R&D Systems Cat#391-GR) (human) (UniProt P08069). Described as above.
Assay [14] has as its target rHuman EGF R/Fc Chimera, CF (R&D Systems Cat#344-ER) (human) (UniProt P00533). The experiment in a line: MSD Multispot ECL, antigen spotted on plate, Fab at 60 nM; blank spot 237.
Assay [15] addresses rHuman ErbB2/Fc Chimera, CF (R&D Systems Cat#1129-ER) (human) (UniProt P04626). Described as above.
Assay [16] concerns the target rHuman HGF R/c-MET/Fc Chimera, CF (R&D Systems Cat#358-MT/CF) (human) (UniProt P08581). The assay is described as above.
Assay [17] concerns the target rHuman IGF-1 sR, (IGF-1 sR), CF (R&D Systems Cat#391-GR) (human) (UniProt P08069). The description is as above.
Assay [18] deals with rHuman EGF R/Fc Chimera, CF (R&D Systems Cat#344-ER) (human) (UniProt P00533). Briefly: MSD Multispot ECL, antigen spotted on plate, Fab at 120 nM; blank spot 363.
Assay [19] has as its target rHuman ErbB2/Fc Chimera, CF (R&D Systems Cat#1129-ER) (human) (UniProt P04626). Described as above.
Assay [20] has as its target rHuman HGF R/c-MET/Fc Chimera, CF (R&D Systems Cat#358-MT/CF) (human) (UniProt P08581). Described as above.
In assay [21] the target is rHuman IGF-1 sR, (IGF-1 sR), CF (R&D Systems Cat#391-GR) (human) (UniProt P08069). The assay is described as above.
The target in assay [22] is rHuman EGF R/Fc Chimera, CF (R&D Systems Cat#344-ER) (human) (UniProt P00533). Briefly: MSD Multispot ECL, antigen spotted on plate, Fab at 240 nM; blank spot 316.
Assay [23] has as its target rHuman ErbB2/Fc Chimera, CF (R&D Systems Cat#1129-ER) (human) (UniProt P04626). The description is as above.
In assay [24] the target is rHuman HGF R/c-MET/Fc Chimera, CF (R&D Systems Cat#358-MT/CF) (human) (UniProt P08581). Described as above.
The target in assay [25] is rHuman IGF-1 sR, (IGF-1 sR), CF (R&D Systems Cat#391-GR) (human) (UniProt P08069). Described as above.
In assay [26] the target is rHuman EGF R/Fc Chimera, CF (R&D Systems Cat#344-ER) (human) (UniProt P00533). The experiment in a line: MSD Multispot ECL, antigen spotted on plate, Fab at 3.8 nM; blank spot 198.
For assay [27], the target named is rHuman ErbB2/Fc Chimera, CF (R&D Systems Cat#1129-ER) (human) (UniProt P04626). The description is as above.
In assay [28] the target is rHuman HGF R/c-MET/Fc Chimera, CF (R&D Systems Cat#358-MT/CF) (human) (UniProt P08581). The assay is described as above.
The target in assay [29] is rHuman IGF-1 sR, (IGF-1 sR), CF (R&D Systems Cat#391-GR) (human) (UniProt P08069). The description is as above.
Assay [30] has as its target rHuman EGF R/Fc Chimera, CF (R&D Systems Cat#344-ER) (human) (UniProt P00533). Briefly: MSD Multispot ECL, antigen spotted on plate, Fab at 480 nM; blank spot 362.
Assay [31] addresses rHuman ErbB2/Fc Chimera, CF (R&D Systems Cat#1129-ER) (human) (UniProt P04626). The description is as above.
Assay [32] concerns the target rHuman HGF R/c-MET/Fc Chimera, CF (R&D Systems Cat#358-MT/CF) (human) (UniProt P08581). The description is as above.
The target of assay [33] is rHuman IGF-1 sR, (IGF-1 sR), CF (R&D Systems Cat#391-GR) (human) (UniProt P08069). The description is as above.
In assay [34] the target is rHuman EGF R/Fc Chimera, CF (R&D Systems Cat#344-ER) (human) (UniProt P00533). Briefly: MSD Multispot ECL, antigen spotted on plate, Fab at 7.5 nM; blank spot 217.
For assay [35], the target named is rHuman ErbB2/Fc Chimera, CF (R&D Systems Cat#1129-ER) (human) (UniProt P04626). The description is as above.
In assay [36] the target is rHuman HGF R/c-MET/Fc Chimera, CF (R&D Systems Cat#358-MT/CF) (human) (UniProt P08581). Described as above.
For assay [37], the target named is rHuman IGF-1 sR, (IGF-1 sR), CF (R&D Systems Cat#391-GR) (human) (UniProt P08069). The assay is described as above.

Chain of rHuman HGF R/c-MET/Fc Chimera, CF (R&D Systems Cat#358-MT/CF) (human) (P08581 25-932, change not shown): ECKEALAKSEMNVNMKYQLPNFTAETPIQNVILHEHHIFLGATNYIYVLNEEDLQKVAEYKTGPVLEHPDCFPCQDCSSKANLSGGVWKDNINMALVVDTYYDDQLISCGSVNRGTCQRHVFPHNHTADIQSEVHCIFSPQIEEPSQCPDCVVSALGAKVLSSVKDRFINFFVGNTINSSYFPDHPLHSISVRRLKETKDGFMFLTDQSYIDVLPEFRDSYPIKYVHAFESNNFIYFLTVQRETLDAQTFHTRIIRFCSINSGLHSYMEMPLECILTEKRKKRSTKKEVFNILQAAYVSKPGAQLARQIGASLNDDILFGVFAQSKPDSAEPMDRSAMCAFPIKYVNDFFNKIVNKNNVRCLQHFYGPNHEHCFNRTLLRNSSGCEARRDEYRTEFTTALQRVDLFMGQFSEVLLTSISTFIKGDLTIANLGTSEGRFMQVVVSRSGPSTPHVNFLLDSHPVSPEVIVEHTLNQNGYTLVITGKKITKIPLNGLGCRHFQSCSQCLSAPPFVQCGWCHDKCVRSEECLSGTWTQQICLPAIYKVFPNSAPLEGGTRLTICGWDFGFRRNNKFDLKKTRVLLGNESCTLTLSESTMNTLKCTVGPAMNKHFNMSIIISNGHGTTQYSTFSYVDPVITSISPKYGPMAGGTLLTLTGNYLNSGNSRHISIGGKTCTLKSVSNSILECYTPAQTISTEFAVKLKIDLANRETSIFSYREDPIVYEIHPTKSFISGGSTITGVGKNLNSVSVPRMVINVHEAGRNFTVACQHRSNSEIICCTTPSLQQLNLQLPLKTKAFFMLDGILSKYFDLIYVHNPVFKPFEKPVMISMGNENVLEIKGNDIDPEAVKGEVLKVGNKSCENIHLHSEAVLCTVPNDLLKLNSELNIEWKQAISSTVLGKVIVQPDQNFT

B1: Fab VH5-51_IGHD5-18*01>3_IGHJ4*01 G100K/G104T S84V & V3-4_IGLJ1*01 (Fab, V domains shown)
VH: EVQLVQSGAEVKKPGESLKISCKGSGYSFTSYWIGWVRQMPGKGLEWMGIIYPGDSDTRYSPSFQGQVTISADKSISTAYLQWVSLKASDTAMYYCARRKYSYTYDYFDYWGQGTLVTVSS
VL: QTVVTQEPSFSVSPGGTVTLTCGLSSGSVSTSYYPSWYQQTPGQAPRTLIYSTNTRSSGVPDRFSGSILGNKAALTITGAQADDESDYYCVLYMGSGISYVFGTGTKVTVL
As to B1, the ECL signal in assay [1] turned out to be 1040.

B2: Fab VH5-51_IGHD5-18*01>3_IGHJ4*01 G100K/G104T S84L & V3-4_IGLJ1*01 (Fab, V domains shown)
VH: EVQLVQSGAEVKKPGESLKISCKGSGYSFTSYWIGWVRQMPGKGLEWMGIIYPGDSDTRYSPSFQGQVTISADKSISTAYLQWLSLKASDTAMYYCARRKYSYTYDYFDYWGQGTLVTVSS
VL: QTVVTQEPSFSVSPGGTVTLTCGLSSGSVSTSYYPSWYQQTPGQAPRTLIYSTNTRSSGVPDRFSGSILGNKAALTITGAQADDESDYYCVLYMGSGISYVFGTGTKVTVL
As for B2, in assay [2], the ECL signal is 1090.

B3: Fab VH5-51_IGHD5-18*01>3_IGHJ4*01 G100K/G104T (H:KT) & V3-4_IGLJ1*01 G97A (Fab, V domains shown)
VH: EVQLVQSGAEVKKPGESLKISCKGSGYSFTSYWIGWVRQMPGKGLEWMGIIYPGDSDTRYSPSFQGQVTISADKSISTAYLQWSSLKASDTAMYYCARRKYSYTYDYFDYWGQGTLVTVSS
VL: QTVVTQEPSFSVSPGGTVTLTCGLSSGSVSTSYYPSWYQQTPGQAPRTLIYSTNTRSSGVPDRFSGSILGNKAALTITGAQADDESDYYCVLYMGSAISYVFGTGTKVTVL
B3: the ECL signal in [3] amounted to 1060; in [4], 1290.

B4: Fab VH5-51_IGHD5-18*01>3_IGHJ4*01 G100K/G104T S28R (H:KT S28R) & V3-4_IGLJ1*01 M94R/S96M (L:RM) (Fab, V domains shown)
VH: EVQLVQSGAEVKKPGESLKISCKGSGYRFTSYWIGWVRQMPGKGLEWMGIIYPGDSDTRYSPSFQGQVTISADKSISTAYLQWSSLKASDTAMYYCARRKYSYTYDYFDYWGQGTLVTVSS
VL: QTVVTQEPSFSVSPGGTVTLTCGLSSGSVSTSYYPSWYQQTPGQAPRTLIYSTNTRSSGVPDRFSGSILGNKAALTITGAQADDESDYYCVLYRGMGISYVFGTGTKVTVL
Take B4: the ELISA signal in assay [5] turned out to be 0.001.

B5: Fab VH6-1_IGHD3-3*01_IGHJ4*01 & V4-3_IGLJ4*01 (Fab, V domains shown)
VH: QVQLQQSGPGLVKPSQTLSLTCAISGDSVSSNSAAWNWIRQSPSRGLEWLGRTYYRSKWYNDYAVSVKSRITINPDTSKNQFSLQLNSVTPEDTAVYYCAREYYDFWSGYYTDYFDYWGQGTLVTVSS
VL: QPVLTQPTSLSASPGASARLTCTLRSGINLGSYRIFWYQQKPESPPRYLLSYYSDSSKHQGSGVPSRFSGSKDASSNAGILVISGLQSEDEADYYCMIWHSSASFVFGGGTQLIIL
Regarding B5, the ECL signal was 584 in assay [6]; 713 in [7]; 694 in assay [8]; 705 in assay [9]; 585 in assay [10]; 726 in assay [11]. In addition, the ECL signal in assay [12] is 640; in assay [13] it was 697; in assay [14], 679; in assay [15] it was 777; in assay [16] it was 623; in assay [17], 654. For the same molecule, the ECL signal turned out to be 658 in assay [18]; 822 in [19]; 785 in assay [20]; 813 in assay [21]; 690 in assay [22]; 833 in [23]. Moreover, the ECL signal in [24] stood at 834; in assay [25], 625; in assay [26], 511; in assay [27], 714; in assay [28], 519; in [29], 463. Besides, the ECL signal in [30] was determined as 877; in assay [31], 965; in [32], 951; in assay [33] it was 741; in assay [34], 582; in assay [35], 695. In addition, the ECL signal in assay [36] stood at 558; in assay [37], 642.
